In article PMC3045619 (Nucleic Acids Research, 2010):

Experiments:
[1] = molecular target: χ subunit of DNA polymerase III of E. coli, wild-type (E. coli, UniProt P28905 1-147); experiment: cross-linking
[2] = molecular target: χ K124A (E. coli, UniProt P28905 1-147, K124A); experiment: cross-linking

Question: Does WMDFDDDIPF [SSB-Carb, peptide containing the last nine amino acids of EcoSSB] bind [1]?
Answer: Result: binds

Question: Does WMDFDDDIPF [SSB-Carb, peptide containing the last nine amino acids of EcoSSB] bind [2]?
Answer: Result: binds
